Data taken from patent US10927157B2, “Helix-grafted proteins as inhibitors of disease-relevant protein-protein interactions” (priority 2014, dated 2021).

B1: GLUE-Cpep: helix-grafted GLUE PH domain displaying gp41 C-peptide on its C-terminal helix (grafted helix SEQ ID NO:3) (protein)
chain: MEYWHYVETTSSGQPLLREGEKDIAIDQSVGLYHGKSKILQRQRGRIFLTSQRIIYIDDAKPTQNSLGLELDDLAYVNYSSGFLTRSPALILFFKDPSSSTEFVQLSFRKSDGVWFSWATEIALYTILIHSLIEESQNQQEKNEQELL
B2: wtELMO: wild-type form of ELMO (Engulfment and Cell Motility) PTB domain, PDB 2VSZ (protein)
chain: PILELKEKIQPEILELIKQQRLNRLVEGTCFRKLNARRRQDKFWYCRLSPNHKVLHYGDLEESPQGEVPHDSLQDKLPVADIKAVVTGKDCPHMKEKGALKQNKEVLELAFSILYDSNCQLNFIAPDKHEYCIWTDGLNALLGK

Columns and labels:
HIV-1 IIIB virus = test: In cellulo HIV-1 infection assay (CEM-GFP cells, flow cytometry); format: cell-based
Method: The ELMO grafts were tested as potential inhibitors of HIV-1 in cellulo. The validated assay uses a Lymphoblastoid CD4^+ T-cell line with stably integrated EGFP (CEM-GFP) under the control of the HIV-1 long terminal repeat (LTR) promoter. 293T cells are simultaneously transfected with HIV-1 IIIB virus. The infected cells and non-infected cells are mixed together along with the desired inhibitor. If infection succeeds the number of infected GFP^+ cells increases, which can be measured by flow cytometry (FIG. 18). The inhibition of each ELMO construct was determined in a dose depended manner and compared to C34 and T20 (FIG. 19).

5-helix [1] = target: T1, 5-helix (Human immunodeficiency virus type 1 group M subtype B, UniProt P04578, C598G/DEL583-596/DEL601-623/N624G); conditions: untagged ligand, E. coli cell lysate, Ni-NTA
Method: Lysate Ni-NTA Pulldown Assay: GLUE-Cpep was cloned into MCS1 of pETDuet-1 using restriction enzymes NcoI and NotI. The 5 helix with a C-terminal His6× tag was cloned into MCS2 of pETDuet-1 using the restriction enzymes NdeI and KpnI. Completed constructs were transformed into BL21s (DE3). Cells containing the co-expressed pair were inoculated and induced as described previously. Cells were spun down and resuspended in lysis buffer (100 mM NaCl, 20 mM Tris pH 7.4, 10 mM (NH4)2SO4), lysed by sonication, and spun down to remove cell debris. Cleared lysate was incubated with 200 μL Ni-NTA agarose resin for 1 hour. Ni-NTA agarose was washed with 8 mL lysis buffer and with 10 mM imidazole. Proteins were eluted with 500 μL lysis buffer containing 400 mM imidazole.

5-helix [2] = target: T1, 5-helix; conditions: E. coli cell lysate, FLAG-tagged ligand, Ni-NTA plates
Method: ELISA: Separately, wt-GLUE, GLUE-Cpep, and the C-peptide were cloned into MCS1 of pETDuet-1 with FLAG tags using restriction enzymes NcoI and NotI. The 5-helix with a C-terminal His6× tag was cloned into MCS2 of pETDuet-1 using restriction enzymes NdeI and KpnI. Completed constructs were transformed into BL21s (DE3). Cells containing the co-expressed pair were inoculated and induced as described previously. Cells were spun down and resuspended in lysis buffer (20 mM Hepes pH 7.5, 100 mM NaCl), lysed by sonication, and spun down to remove cell debris. Cleared lysates were incubated on clear Ni-NTA coated plates for 1 hour at room temperature and washed 4× with 200 μL wash buffer (20 mM Hepes pH 7.5, 150 mM NaCl, 0.05% Tween-20, 0.01 mg/mL BSA). HRP-conjugated mouse anti-DDDDK antibody in LiCor Blocking Buffer was incubated for 1 hour at room temperature, followed by 4×200 μL washes. Colorimetry was developed using TMB-One substrate and absorbance was measured at 655 nm on a SynergyMx Microplate Reader.

[3] = room temperature (~25 °C)
Method: Protein Purification: Genes were cloned into pETDuet-1 using restriction enzymes BamHI and PacI, downstream of a His6× tag and transformed into BL21s (DE3). Cells were grown in 2.5 L LB cultures containing 50 μg/mL carbenicillin at 37° C. to OD600=0.5 and induced with 1 mM IPTG at 25° C. overnight. Cells were then collected by centrifugation, resuspended in Tris buffer (20 mM Tris pH 7.4, 100 mM NaCl, 10 mM (NH4)2SO4) and stored at −20° C. Frozen pellets were thawed and sonicated with 1 second pulses for 2 minutes. The lysate was cleared by centrifugation (15,000 rpm 30 min.) and the supernatant was mixed with 1 mL of Ni-NTA agarose resin for 1 hour at 4° C. The resin was collected by centrifugation (4,750 rpm, 10 min.). The resin was sequentially washed with 50 mL of buffer containing 20 mM imidazole, 10 mL buffer containing 50 mM imidazole, and 5 mL buffer containing 100 mM imidazole. […] The proteins were dialyzed against Tris buffer and analyzed for purity by SDS-PAGE shown below. Purified protein concentrations were quantified using Beer's Law at an absorbance of 280 nm, following standard practice (Grimsley, G. R.; Pace, C. N. Current Protocols in Protein Science (2003), 3.1.1-3.1.9).
All proteins were produced recombinantly in a pET vector with a His6× tag. […] Their expression was quantified in mg/L and compared to wtGLUE (FIG. 12A). […]

[4] = Circular dichroism thermal denaturation at 222 nm; format: physicochemical; conditions: CD 222 nm, Tris buffer pH 7.4, 0 to 90 °C
Method: Circular Dichroism: Proteins were purified as described above. […] Wavelength data are the average of three scans from 250 nm to 200 nm in 1 nm steps at 25° C. Thermal denaturation experiments at 222 nm were run from 0 to 90° C. in two-degree steps at a two-degree/minute rate of increase with one-minute equilibration and data averaging at each temperature. Tm values were obtained from minima of the first derivative of θ versus 1/T plots.

5-helix [5] = target: T1, 5-helix; format: cell-based, HIV; parameters: N-terminal superpositive GFP tethered to the 5-helix was cloned into pETDuet-1; His6 (N); His6 (C); expressed in transfected cells; host or cells: E. coli BL21 (DE3), pETDuet-1; conditions: E. coli co-expressing N-spGFP-5-helix and C-spGFP fusion, flow cytometry
Method: Split-Superpositive GFP (split-spGFP) Reassembly Assay: Split-spGFP reassembly experiments were performed as previously described (Chapman, A. M.; 3 McNaughton, B. R. Molecular BioSystems 2012, 8, 2036). […] The completed construct was transformed into BL21s (DE3) and the cells were made electrocompetent via standard protocols. Separately, GLUE-Cpep and C-peptide tethered to the C-terminal fragment of superpositive GFP were independently cloned into pBAD using restriction enzymes NcoI and BsrGI. Constructs were electroporated into electrocompetent BL21s (DE3) containing the N-terminal superpositive GFP plasmid, pulsing at 1.8 kV in a 1 mm cuvette. Cells were allowed to recover at 37° C. for 1 hour, and then plated onto agar plates containing carbenicillin and kanamycin. Individual colonies were picked and passaged once, followed by induction at 37° C. with 1 mM IPTG and 0.2% arabinosewhen cultures reached an OD600 of 0.5. After 6 hours, cells were spun down and resuspended in 5 mL PBS. GFP fluorescence was measured by MoFlo Flow Cytometer.

5-helix [6] = target: T1, 5-helix; conditions: 50 nM, 25% human serum, 37 °C, 4 or 12 h
Method: Colorimetry was developed using TMB-One substrate and absorbance was measured at 655 nm on a SynergyMx Microplate Reader.

Row | Molecule | inhibition of HIV-1 infection at 250 nM (HIV-1 IIIB virus; 250 nM) | co-purification with His6-tagged 5-helix (5-helix [1]) | ELISA signal / affinity for 5-helix (5-helix [2]) | solubility and folding in aqueous solution [3] | Tm [4] [°C] | interaction-dependent GFP reassembly fluorescence (5-helix [5]) | ELISA signal for 5-helix after pre-incubation with human serum (5-helix [6]) | inhibition of HIV-1 infection (HIV-1 IIIB virus; dose dependent, compared to C34 and T20)
1 | C26-ELMO: shortened C-peptide grafted onto N-terminal helix of ELMO (SEQ ID NO:7) (WMEWDREINNYTSLIHSLIEESQNQQKQQRLNRLVE) | some inhibition of infection | could also be purified alongside 5-Helix-His6× |  |  |  |  |  | 
2 | B1 |  | excellent selectivity | slightly better affinity than the native C-peptide | soluble and well-folded | ~79 | highly fluorescent | remains functional | 
3 | B2 |  |  | strong ELISA signal |  |  |  |  | no inhibitory effect
